For assay [1], the target named is TraM (TraR antiactivator) of plasmid pAoF64/95 (Agrobacterium spp. (plasmid pAoF64/95)). As to the kind of experiment: two-hybrid; bacterial two-hybrid (LexA-WT and LexA-MUT fusions) in E. coli SU202; heterodimerization represses lacZ; quantitative beta-galactosidase activity against the strain with empty vectors pSR658 and pSR659, n = 3.
The target of assay [2] is Jun (LexA fusion, positive control of the bacterial two-hybrid system). Described as above.

Values joined by “and” are separate entries in the source; they are usually repeats but may differ in a detail not shown here. Equal entries are not always repeated.

Regarding “TmsPs (short form of TmsP, tra M sequestering protein, of plasmid pAoF64/95) (natural protein)”, in assay [1], the fold lower beta-galactosidase activity than the empty-vector control strain was 2 fold and 3 fold.

“Fos (LexA fusion, positive control of the bacterial two-hybrid system) (natural protein)” displayed a fold lower beta-galactosidase activity than the empty-vector control strain in assay [2] of 52 fold.
